The results in this text go back to patent US7968762.

The target of this test is human Met receptor (human) (UniProt P08581). The experiment in a line: cell-based or functional assay.
Chain of UniProt P08581 (P08581 25-1390): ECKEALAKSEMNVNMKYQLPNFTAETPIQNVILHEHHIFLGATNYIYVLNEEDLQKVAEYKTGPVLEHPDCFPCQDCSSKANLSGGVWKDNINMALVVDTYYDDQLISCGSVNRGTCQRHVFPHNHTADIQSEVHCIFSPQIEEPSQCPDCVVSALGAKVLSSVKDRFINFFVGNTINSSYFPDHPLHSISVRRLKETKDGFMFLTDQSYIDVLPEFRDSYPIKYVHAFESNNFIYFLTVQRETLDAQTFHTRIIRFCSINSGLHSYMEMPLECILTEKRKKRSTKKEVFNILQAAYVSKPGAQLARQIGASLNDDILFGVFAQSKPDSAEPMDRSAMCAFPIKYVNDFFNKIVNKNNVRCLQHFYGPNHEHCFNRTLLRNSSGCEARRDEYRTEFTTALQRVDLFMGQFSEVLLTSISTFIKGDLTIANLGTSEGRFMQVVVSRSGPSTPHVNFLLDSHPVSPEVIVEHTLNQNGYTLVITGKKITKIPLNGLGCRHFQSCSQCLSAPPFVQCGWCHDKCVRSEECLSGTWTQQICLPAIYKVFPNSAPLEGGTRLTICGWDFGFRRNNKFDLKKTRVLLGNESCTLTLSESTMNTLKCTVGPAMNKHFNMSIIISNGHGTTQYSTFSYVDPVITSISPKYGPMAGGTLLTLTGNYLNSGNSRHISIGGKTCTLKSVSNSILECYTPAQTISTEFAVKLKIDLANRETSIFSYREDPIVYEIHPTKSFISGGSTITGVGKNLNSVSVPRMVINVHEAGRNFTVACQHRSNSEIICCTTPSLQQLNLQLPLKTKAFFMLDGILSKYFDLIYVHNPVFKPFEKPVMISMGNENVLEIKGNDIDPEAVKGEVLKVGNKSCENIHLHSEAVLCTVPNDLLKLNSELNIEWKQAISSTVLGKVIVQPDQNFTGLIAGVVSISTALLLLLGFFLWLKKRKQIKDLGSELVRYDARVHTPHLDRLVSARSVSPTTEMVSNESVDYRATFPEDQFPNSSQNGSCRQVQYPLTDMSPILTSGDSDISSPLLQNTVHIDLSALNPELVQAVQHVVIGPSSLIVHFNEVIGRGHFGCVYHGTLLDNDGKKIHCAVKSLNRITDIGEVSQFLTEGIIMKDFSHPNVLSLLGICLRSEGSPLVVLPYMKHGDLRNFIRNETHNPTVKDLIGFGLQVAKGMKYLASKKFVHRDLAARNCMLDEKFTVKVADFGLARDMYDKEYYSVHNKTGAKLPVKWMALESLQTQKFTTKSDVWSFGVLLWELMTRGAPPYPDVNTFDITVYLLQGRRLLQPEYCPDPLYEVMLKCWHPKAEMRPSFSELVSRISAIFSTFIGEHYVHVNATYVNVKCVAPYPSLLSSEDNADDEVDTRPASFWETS

“human hepatocyte growth factor/scatter factor (hHGF/SF) (from UniProt P14210 32-728) (ligand)” gave a growth of subcutaneous SK-LMS-1 (high Met) xenografts in hHGF Tg scid mice against control scid mice of 3 fold.
